Literature values in patent US7449180B2, “Macroscopic scaffold containing amphiphilic peptides encapsulating cells” (priority 2001, dated 2008).

Design: key: β denotes beta-sheet; α denote alpha-helix; r.c. denotes random coil
Conditions: secondary structure of the peptide

Substance | Structure
n-(ADADADADARARARAR)-c [DAR32-IV] | α/β
n-AEAEAEAEAKAK-c [EAK12] | α/β
n-AEAEAEAEAKAKAKAK-c [EAK16-IV] | β
n-AEAEAHAH-c [EAH8-II] | r.c.
n-AEAEAHAHAEAEAHAH-c [EAH16-II] | β
n-AEAEAKAK-c [EAK8-II] | r.c.
n-AEAEAKAKAEAEAKAK-c [EAK16-II] | β
n-AEAKAEAK-c [EAKA8-I] | r.c.
n-AEAKAEAKAEAKAEAK-c [EAKA16-I] | β
n-FEFEFKFKFEFEFKFK-c [EFK16-II] | β
n-FEFKFEFK-c [EFK8-II] | β
n-HEHEHKHK-c [EHK8-I] | r.c.
n-HEHEHKHKHEHEHKHK-c [EHK16] | r.c.
n-KADAKADA-c [KADA8-I] | r.c.
n-KADAKADAKADAKADA-c [KADA16-I] | β
n-KAKAKAKAEAEAEAEA-c [KAE16-IV] | β
n-LELELKLK-c [ELK8-II] | r.c.
n-LELELKLKLELELKLK-c [ELK16-II] | β
n-RADARADA-c [RADA8-I] | r.c.
n-RADARADARADARADA-c [RADA16-I] | β
n-RADARGDARADARGDA-c [RGDA16-I] | r.c.
n-RAEARAEA-c [RAEA8-I] | r.c.
n-RAEARAEARAEARAEA-c [RAEA16-I] | β
n-RARADADA-c [RAD8-II] | r.c.
n-RARADADARARADADA-c [RAD16-II] | β
n-RARARARADADADADA-c [RAD16-IV] | β
n-RFRFRFRFRFRFRFRFRFRF-c [RF20*] | β
n-VEVEVEVEVEVEVEVEVEVE-c [VE20*] | β
